# From patent US20230192818A1
# Experiments:
# [1] = biological target: biotinylated SARS-CoV-2 S1 variant B.1.351 (Example 5) (SARS-CoV-2) (UniProt P0DTC2); experiment: phage ELISA screening
# [2] = biological target: biotinylated SARS-CoV-2 S1 variant P.1 (Example 5) (SARS-CoV-2) (UniProt P0DTC2); experiment: phage ELISA screening
Binder,ELISA [1],ELISA [2]
"12-19 (antibody, V domains shown) VH: QVQLVESGGGVVQPGRSLRLSCAASGFAFSSYAMHWVRQAPGKGLEWVAVISYDGTYEYYADSVKGRFTISRDNSKNTLYLQMNSLRAEDTAVYYCARSLGGSYFSGMDVWGQGTLVTVSS VL: EIVLTQSPATLSLSPGERATLSCRASQSISRYLAWYQQKPGQAPRLLIYDVSNRATGIPARFSGSGSGTDFTLTISSLEPEDFAVYYCQQSSNWPLFTFGGGTKVEIK",13.8,
"12-28 (antibody, V domains shown) VH: QVQLVESGGGVVQPGRSLRLSCAASGFTFSSYAMHWVRQAPGKGLEWVAVISYDGTNEYYADSEKGRFTISRDNSKNTLYLQMNSLRAEDTAVYYCARAHGGSYFSGMDVWGQGTLVTVSS VL: EIVLTQSPATLSLSPGERATLSCRASQSVRHHLAWYQQKPGQAPRLLIYDASNRATGIPARFSGSGSGTDFTLTISSLEPEDFAVYYCQQSGSWPLTFGGGTKVEIK",8.63,
"12-39 (antibody, V domains shown) VH: QVQLVESGGGVVQPGRSLRLSCAASGFTFSSYAMHWVRQAPGKGLEWVAVISYDGNHEYYADSVKGRFTISRDNSKNTLYLQMNSLRAEDTAVYYCARAHSGSYFSHFDYWGQGTLVTVSS VL: EIVLTQSPATLSLSPGERATLSCRASESISTYLAWYQQKPGQAPRLLIYDASNRATGIPARFSGSGSGTDFTLTISSLEPEDLAVYYCQQRRNSLTFGGGTKVEIK",5.09,
"12-29 (antibody, V domains shown) VH: QVQLVESGGGVVQPGRSLRLSCAASGFSFSNYGMHWVRQAPGKGLEWVAVISYDGNNKYYADSVKGRFTISRDNSKNTLYLQMNSLRAEDTAVYYCARSKGGSYYGPFDDWGQGTLVTVSS VL: EIVLTQSPATLSLSPGERATLSCRASQIISSYLAWYQQKPGQAPRLLIYDTSNRATGIPARFSGSGSGTDFTLTISSLEPEDFAVYYCQVRSNWPPLTFGGGTKVEIK",7.55,
"12-20 (antibody, V domains shown) VH: QVQLVESGGGVVQPGRSLRLSCAASGFSFGGYGMHWVRQAPGKGLEWVAVISYDGSNKYYADSVKGRFTISRDNSKNTLYLQMNSLRAEDTAVYYCARSKGGSYYGPFDYWGQGTLVTVSS VL: EIVLTQSPATLSLSPGERATLSCRASQSLGNYLAWYQQKPGQAPRLLIYDSSNRATGIPARFSGSGSGTDFTLTISSLEPEDFAVYYCQQRNTWPGVTFGGGTKVEIK",13.3,
"13-5 (antibody, V domains shown) VH: QVQLVESGGGVVQPGRSLRLSCAASGFIFRSYAMHWVRQAPGKGLEWVAVISYDGSSKYYADSVKGRFTISRDNSKNTLYLQMNSLRAEDTAVYYCARPLGGGYQDAFDIWGQGTLVTVSS VL: EIVLTQSPATLSLSPGERATLSCRASQSIGSYLAWYQQKPGQAPRLLIYDVSNRATGIPARFSGSGSGTDFTLTISSFEPEDFAVYYCQQRHHWPPVTFGGGTKVEIK",,10.3
"12-22 (antibody, V domains shown) VH: QVQLVESGGGVVQPGRSLRLSCAASGFTFSSYGMHWVRQAPGKGLEWVAVISYDGNHEYYADSVKGRFTISRDNSKNTLYLQMNSLRAEDTAVYYCARPKSGSYVSYFDYWGQGTLVTVSS VL: EIVLTQSPATLSLSPGERATLSCRASQSVRHHLAWYQQKPGQAPRLLIYDASNRATGIPARFSGSGSGTDFTLTISSLEPEDFAVYYCQERSDWPITFGGGTKVEIK",10.5,
"12-26 (antibody, V domains shown) VH: QVQLVESGGGVVQPGRSLRLSCAASGFTFSNYAMHWVRQAPGKGLEWVAVISYDGSNEYYADSEKGRFTISRDNSKNTLYLQMNSLRAEDTAVYYCAKSGSGSYFSPFDYWGQGTLVTVSS VL: EIVLTQSPATLSLSPGERATLSCRASQSVSTSLAWYQQKPGQAPRLLIYDISNRATGIPARFSGSGSGTDFTLTISSLEPEDFAVYYCQQRRSGLTFGGGTKVEIK",9.05,
"12-21 (antibody, V domains shown) VH: QVQLVESGGGVVQPGRSLRLSCAASGFSFGGYGMHWVRQAPGKGLEWVAVISYDGSNKYYADSVKGRFTISRDNSKNTLYLQMNSLRAEDTAVYYCARPKGGNYWNAFDIWGQGTLVTVSS VL: EIVLTQSPATLSLSPGERATLSCRASQSVNSDLAWYQQKPGQAPRLLIYDASNRATGIPARFSGSGSGTDFTLTISSLEPEDFAVYYCQERSLFGGGTKVEIK",11.7,
"12-31 (antibody, V domains shown) VH: QVQLVESGGGVVQPGRSLRLSCAASGFTFSYYTMHWVRQAPGKGLEWVAVTSYDGSNKYYADSVKGRFTISRDNSKNTLYLQMNSLRAEDTAVYYCARPLGGSYFAAFDIWGQGTLVTVSS VL: EIVLTQSPATLSLSPGERATLSCRASQSIGSYLAWYQQKPGQAPRLLIYDVSNRATGIPARFSGSGSGTDFTLTISSLEPEDFAVYYCQQRDSFTFGGGTKVEIK",7.01,
"12-36 (antibody, V domains shown) VH: QVQLVESGGGVVQPGRSLRLSCAASGFSFNNYGMHWVRQAPGKGLEWVAVISYDGSNDYYADSVKGRFTISRDNSKNTLYLQMNSLRAEDTAVYYCARPNSGSYSNYFDYWGQGTLVTVSS VL: EIVLTQSPATLSLSPGERATLSCRASQGISTYLAWYQQKPGQAPRLLIYDASNRATGIPARFSGSGSGTDFTLTISSLEPEDFAVYYCQQRRRWPPTFGGGTKVEIK",5.51,
"12-27 (antibody, V domains shown) VH: QVQLVESGGGVVQPGRSLRLSCAASGFSFGGYGMHWVRQAPGKGLEWVAVISYDGSTKYYADSVKGRFTISRDNSKNTLYLQMNSLRAEDTAVYYCARPRGGSYKDAFDIWGQGTLVTVSS VL: EIVLTQSPATLSLSPGERATLSCRASDTVSSYLAWYQQKPGQAPRLLIYDTSNRATGIPARFSGSGSGTDFTLTISSLEPEDFAVYYCQQRASWPLSFGGGTKVEIK",8.83,
"12-43 (antibody, V domains shown) VH: QVQLVESGGGVVQPGRSLRLSCAASGFIFSSYGMHWVRQAPGKGLEWVAVISYDGSNEYYADSVKGRFTISRDNSKNTLYLQMNSLRAEDTAVYYCARPRSGSYLSAFDYWGQGTLVTVSS VL: EIVLTQSPATLSLSPGERATLSCRASQSVGKSLAWYQQKPGQAPRLLIYDTSNRATGIPARFSGSGSGTDFTLTISSLEPEDFAVYYCQQRGSFPLTFGGGTKVEIK",4.82,
"13-3 (antibody, V domains shown) VH: QVQLVESGGGVVQPGRSLRLSCAASGFSFNNHAMHWVRQAPGKGLEWVAVISYDGSDKYYADSVKGRFTISRDNSKNTLYLQMNSLRAEDTAVYYCARNLLRGYGMDVWGQGTLVTVSS VL: DIQMTQSPSSLSASVGDRVTITCRASQSIGDYLNWYQQKPGKAPKLLIYEASSLQSGVPSRFSGSGSGTDFTLTISSLQPEDFATYYCLHTYLPPYSFGQGTKVEIK",,19.5
"13-4 (antibody, V domains shown) VH: QVQLVESGGGVVQPGRSLRLSCAASGFAFDDYAMHWVRQAPGKGLEWVAVISYDGSNKYYADSVKGRFTISRDNSKNTLYLQMNSLRAEDTAVYYCATLGYGDYPDYWGQGTLVTVSS VL: DIQMTQSPSSLSASVGDRVTITCRASQSITRYLNWYQQKPGKAPKLLIYAASSLQSGVPSRFSGSGSGTDFTLTISSLQPEDFATYYCQQTYNFPHTFGQGTKVEIK",,18.9
"12-32 (antibody, V domains shown) VH: QVQLVESGGGVVQPGRSLRLSCAASGFTFGTYAMHWVRQAPGKGLEWVAVISYDGNNKYYADSVKGRFTISRDNSKNTLYLQMNSLRAEDTAVYYCAKTMSGSYFSAFDIWGQGTLVTVSS VL: EIVLTQSPATLSLSPGERATLSCRASQSIGSYLAWYQQKPGQAPRLLIYDVSNRATGIPARFSGSGSGTDFTLTISSLEPEDFAVYYCQQRDSFTFGGGTKVEIK",6.88,
"12-34 (antibody, V domains shown) VH: QVQLVESGGGVVQPGRSLRLSCAASGFIFRSYAMHWVRQAPGKGLEWVAVISYDGSSKYYADSVKGRFTISRDNSKNTLYLQMNSLRAEDTAVYYCARPSGGSYFDPFDYWGQGTLVTVSS VL: EIVLTQSPATLSLSPGERATLSCRASQSVGNFLAWYQQKPGQAPRLLIYDASNRATGIPARFSGSGSGTDFTLTISSLEPEDFAVYYCQHRRLLTFGGGTKVEIK",5.81,
"12-24 (antibody, V domains shown) VH: QVQLVESGGGVVQPGRSLRLSCAASGFTFSNFPMHWVRQAPGKGLEWVAVISYDGNNKYYADSVKGRFTISRDNSKNTLYLQMNSLRAEDTAVYYCAKDHGDHYFDYWGQGTLVTVSS VL: EIVLTQSPATLSLSPGERATLSCRASQSFGDSLAWYQQKPGQAPRLLIYDASNRATGIPARFSGSGSGTDFTLTISSLEPEDFAVYYCQQRSIPITFGGGTKVEIK",9.63,
"12-42 (antibody, V domains shown) VH: QVQLVESGGGVVQPGRSLRLSCAASGFTFGSYGMHWVRQAPGKGLEWVAVISYDGSHKYYADSVKGRFTISRDNSKNTLYLQMNSLRAEDTAVYYCARALGGNYYYFDYWGQGTLVTVSS VL: EIVLTQSPATLSLSPGERATLSCRASQSVDSRLAWYQQKPGQAPRLLIYDTSNRATGIPARFSGSGSGTDFTLTISSLEPEDFAVYYCQQRSSNWTFGGGTKVEIK",4.93,
"12-37 (antibody, V domains shown) VH: QVQLVESGGGVVQPGRSLRFSCAGTGFTFSSYAMHWVRQAPGKGLEWVAVISYDGSNQYYADSVKGRFTISRDNSKNTLYLQMNSLRAEDTAVYYCARSRSGSYLAYFDYWGQGTLVTVSS VL: EIELTQSPATLSLSPGERATLSCRASESVSESLAWYQQKPGQAPRLLIYDASNRATGIPARFSGSGSGTDFTLTISSLEPEDFAVYYCQQRTHGVTFGGGTKVEIK",5.5,
"13-1 (antibody, V domains shown) VH: QVQLVESGGGVVQPGRSLRLSCAASGFTFSSYSMHWVRQAPGKGLEWVAVISYDGRNQYYADSVKGRFTISRDNSKNTLYLQMNSLRAEDTAVYYCAKGYGGNYYYMDGWGQGTLVTVSS VL: EIVLTQSPATLSLSPGERATLSCRASQSVGDFLAWYQQKPGQAPRLLIYDTSNRATGIPARFSGSGSGTDFTLTISSLEPEDFAVYYCQQRSIRGTFGGGTKVEIK",,22.2
